For this assay, the target named is Flag-tagged MxA wildtype (human myxovirus resistance protein A) (human) (UniProt P20591).

The substance “SiAr126 nucleoprotein (NP), wildtype, from expression plasmid (natural protein)” showed a SiAr126 polymerase reconstitution (minigenome firefly luciferase) in 293T cells: inhibition by co-expressed MxA compared with the inactive MxA(T103A) of 90%.

The values above are taken from publication PMC7704052.
